Laboratory results taken from PMC10753161.

Columns and labels:
[1] = target: His-tagged StBIN2 protein (potato (Solanum tuberosum))
[2] = target: StBIN2-M (potato (Solanum tuberosum))

Substance: His-tagged StSN2 protein (from UniProt Q93X17 24-104) (natural protein)
- StBIN2 kinase activity as ATP consumption (Kinase-Lumi), 5 μg StBIN2 with varying masses of StSN2 up to 15 μg, against StBIN2 alone [1]: 10 fold
- ATP consumed by StBIN2-M with StSN2 against StBIN2 with StSN2; 5 μg kinase + 5, 10 and 15 μg StSN2 (reduced by 63%, 14% and 12%) [2]: 63 % reduction
